According to patent US20100047164A1:

Biological target: chondroitin sulfate proteoglycan (human) (UniProt Q6UVK1)

## 9.2.27 PE38-KDEL (from UniProt P11439) (scFv)
  IC50 cytotoxicity, A375 (Expt 2) melanoma cells (9.2.27F10): 4.5 mg/L
  IC50 cytotoxicity, A375 (Expt 2) melanoma cells (9.2.27F11): 4.5 mg/L
  IC50 cytotoxicity, A375 (Expt 3) melanoma cells (9.2.27F11): 0.6 mg/L
  IC50 cytotoxicity, D54 glioma cells (9.2.27F10): 0.055 mg/L
  IC50 cytotoxicity, D54 glioma cells (9.2.27F11): 0.07 mg/L
  IC50 cytotoxicity, D79 glioma cells (9.2.27F10): 0.22 mg/L
  IC50 cytotoxicity, D79 glioma cells (9.2.27F11): 0.1 mg/L
  IC50 cytotoxicity, D245 glioma cells (9.2.27F10): 0.008 mg/L
  IC50 cytotoxicity, D245 glioma cells (9.2.27F11): 0.006 mg/L
  IC50 cytotoxicity, D247 glioma cells (9.2.27F11): 0.08 mg/L
  IC50 cytotoxicity, H350 melanoma cells (9.2.27F10): 0.02 mg/L
  IC50 cytotoxicity, H350 melanoma cells (9.2.27F11): 0.02 mg/L
  IC50 cytotoxicity, Malme3M melanoma cells (9.2.27F10): 0.018 mg/L
  IC50 cytotoxicity, Malme3M melanoma cells (9.2.27F11): 0.02 mg/L
  IC50 cytotoxicity, SKMel2 melanoma cells (9.2.27F10): 2.4 mg/L
  IC50 cytotoxicity, SKMel2 melanoma cells (9.2.27F11): 0.7 mg/L
  IC50 cytotoxicity, SKMel5 melanoma cells (9.2.27F10): 0.35 mg/L
  IC50 cytotoxicity, SKMel5 melanoma cells (9.2.27F11): 0.2 mg/L
  IC50 cytotoxicity, TB2620 glioma cells (9.2.27F10): 0.5 mg/L
  IC50 cytotoxicity, TB2620 glioma cells (9.2.27F11): 0.18 mg/L

## MEL-14 PE38-KDEL (from UniProt P11439) (scFv)
  IC50 cytotoxicity, A375 (Expt 2) melanoma cells (Mel14-KDEL): 0.5 mg/L
  IC50 cytotoxicity, A375 (Expt 3) melanoma cells (Mel14-KDEL): 0.45 mg/L
  IC50 cytotoxicity, D54 glioma cells (Mel14-KDEL): 0.05 mg/L
  IC50 cytotoxicity, D79 glioma cells (Mel14-KDEL): 0.2 mg/L
  IC50 cytotoxicity, D245 glioma cells (Mel14-KDEL): 0.004 mg/L
  IC50 cytotoxicity, D247 glioma cells (Mel14-KDEL): 0.1 mg/L
  IC50 cytotoxicity, H350 melanoma cells (Mel14-KDEL): 0.008 mg/L
  IC50 cytotoxicity, Malme3M melanoma cells (Mel14-KDEL): 0.001 mg/L
  IC50 cytotoxicity, SKMel2 melanoma cells (Mel14-KDEL): 0.036 mg/L
  IC50 cytotoxicity, SKMel5 melanoma cells (Mel14-KDEL): 0.06 mg/L
  IC50 cytotoxicity, TB2620 glioma cells (Mel14-KDEL): 0.15 mg/L
